# Measured values from the supplement of paper PMC12636428.
# Tested on: Saccharomyces cerevisiae
# Experiment: transcriptional activation domain activity (GFP:mCherry ratio, weighted mean of sorted bins, harmonized to initial dataset scale) (arbitrary fluorescence ratio units); higher = stronger transcriptional activation
# Details: beta-estradiol 1 µM; induction time 4 h
# Summary of the method: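 Activation activity, the read-weighted mean of bin median fluorescence averaged across barcodes, was linearly mapped onto the scale of the initial dataset. It was measured for barcoded protein tiles fused to an estradiol-inducible synthetic transcription factor at URA3 in GFP-reporter yeast diploids. Cultures diluted 1:5 into SC with 1 uM beta-estradiol were held 4 hours at 30 °C, sorted into 8 bins by GFP:mCherry ratio, and barcode-sequenced, and tiles under 50 reads were discarded.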
row,Sequence,transcriptional activation domain activity
1,MGKKRCLERILFLFLYAILFHILLLLLPSFPFLYLYTFAFVFYFSLSIYLVSL,43600
2,MALASPVFFFFYLYFIILLFGVGIYLFTFVMSYHTMVMQIIHVSCYNHRYIPV,47200
3,MLIQSQPQPPPTKHTPLYFIPHFILLLLLALSPSLTLLTLSFFYLFLFCYLLV,20900
4,TQATIVGDFFVCLMDVAGHDLAILLINWRAQTGTWLIFDSLEPLMWPHRITLV,40300
5,IMTKSEQQIVKCVKLMLSSSEKRYRLFNDSFSVIIFRIVDMNYGLRLLNLIID,56100
6,LYLLIFFPVLLWRYLCIGLDSVLCCHIGFHFPYFMCYFFAIMSVSRSFFIHVY,67200
7,CRGIYTLHTTNLMIVDDIVYLWRYDRQNVIQSTGLNFITDMPYFMALLAVFQR,48500
8,MGSCNLPFGHISLARGTLVLIRGWSFFLASQPPYGFIRWILFRSSFYFLCSWR,55900
9,SQLPSLRLFNSYLALWAIGLISIMLFLLIATWHYARVDWQMQVLAVHHVLNLS,34800
10,EDEEDLSSKPRCQRCRKSKKGCDRQRPCQRCKDAGLSADQCVSEDEGNGRKGR,15700
11,LLSGRLFLGFYAAKNILRLARAFAATRQVIYDLGKFYRSPLTAPDRIAHLFPS,47000
12,FFLKVYLLNPLHMTRFADLLYQGAILNRVFQPYESHLQYLLQWMCDYNLYGCA,72900
13,CVGFANYCHFIRFLVYVGLGAIYLMVLLGCRLSSILYHPASATEWVLLGLNLF,63000
14,VPGEVSEAEANGETKAEDAPAAEGDAAKPKKKKKKAAKKAKSANGEATEGAPA,< 6570
15,SKDARETNPEGEEIEKQRRKKRSREEKEDNERSSRKRRSSRSRSPRRQKEKAN,30900
16,VCVRVDWPWLSFPTALVLLTVVLFVTVLVIARRSQVSEGQPIWKSSSIVAFFH,41100
17,GKVFILLRIWFFRQRSLSLYRTLLSSYLVERSPLFTSTMGVFGLDRKLLVKTA,62500
18,AQEEFRTYIQEHLVAEQVIAADESSKDDHTIIQHFGRAPHVLWLLLVLMAIWL,78200
19,VPWSRSGHAIDLRFVRSFVAALVFLLLLLFLLLLLLLLLLLLLLLFLLFFFVF,37200
20,ADRLIRILRILMFNWKFWNTGCFATYDPNSNLVRLEIPCSRDLLGTKPGTYYY,50200
21,FFHVTIRVASQSCGIAFGILGFSNFPVFLAYLILGAEGYFSLVLCAFRFLISW,75000

row,Sequence,transcriptional activation domain activity
1,EGEDALTLPLIISSQALLVVPPEKIVALPLQQMLSLVVRAITQAFVHGAFISR,67100
2,RPDVVLIQAGLWARFWLFIVISHALLEYHTFADGICLCYVSTVVFLIRHAKLW,68100
3,SIPPPPPPPAPPGPSRGGPPPPPPPPPPGGRGGAPPPPPPPPGGRAPPAPPAP,22100
4,WLAHSKKKTCDVCKHPYSFTKVYATDMPTRLPPVLLLRRVAQQSFFAMLFAVR,48100
5,PLLNGSAIISRLTTGVIGDRYGVLTCEVPVAFITGCLIFSMCVLLLIILHLVC,21700
6,SCDNIDNAEDKCSYALEYCMDATPGLLNYIQLYYCSSVKPFVFIVLCLWLLFL,36000
7,HSSAPASPASPSPNSAPTPPATTPPPPPSPAAPRRTHSPPTPGTRRPSTTTPS,53500
8,HHDNVNPTIPPPDNYILNNENDDGLDNLLGMDYYNIDDLLTQELRDLDIPLVP,140000
9,MHCEGCIQVIYRCYCLLIFLFFYYVCLFCLYILGKQLGLVHVFFYKYWCFFIL,53100
10,IFVYLRIKKCCCLNKSSLLLDVRLIHKNRDTVIIFARGLVGIFKKLSLRVVEC,51200
11,CVFDMPCLWYGVYLVWFGVFSYLLLWCFALGAYYSSTVWSILWLIAAGSWCRQ,73300
12,LLLHVLIALRFWRFFGYSIGMVCGILLELVGYCGKVQLSHNRDNKDGYIIGLT,50800
13,TGKRKFRSSFLLYLAARWCPLFCVITILVGVDPINRINCQAYVVFAFLFANIS,52000
14,LLIYGIVGFINLIKGEYLIVITGCKKIGSLVHNAEIYRATSFQILPVTHGLSS,55300
15,PPGNRTGAVTIGDESINGSEMPDFSLDLVSNDRQTGLEALDYDIHNYFPQHSE,75200
16,ALKVVVRVKMFGIGPLIYCSCLFVLLFSVVLLLLLAALYLMLQIYAALVVSAV,47100
17,RNIGTGPSAPGGVDHKRSRACESCRGLKVRCEPANEANLQGSCKRCAKAGRHC,40400
18,LSRGSCFVFWIFFSVPPPLFPFIYSYIFFFSFLLWFSVFVSVVFSFFSFWFFF,55700
19,VETRSFWFLPVIQKHALHLTMVDILSSTPGIWCLSEFMIGHLLLCVHLRSISV,60500
20,KVAEPGSKVSLRAPVDPNAPAPKPKKGKDGKEIKEEPKMIEKVVDSIYLHVQT,41000
21,MLFYFYFYFYFYAFSIFSFYVIFYFLYFFFLFRPGLLYLLLLFFSILFVLFLP,64900

row,Sequence,transcriptional activation domain activity
1,INCQVVYQLQGITGHMALNFASINFAIRTIYIWMHNVYVTSTLSLLILCQWVI,54700
2,VVSFFVILGYMLLYRMRSTQLWSNRSTSSFGERPKPPIVAYRSIIIRIGLRKL,67300
3,GPEYEPGRPSEQEVSLTRMLDKVLRRSDAIDKESLCIIAGQRVWHIRLTIHCL,87900
4,MGFKTSMGWICLSQVSFFDCNLLYCVVFFIFSSKSLATSPFLSLVLLFSLYPL,29200
5,IWRCTLFLLYGGHFEAALTCIRASASIGTFRDINVACGRNVAFFLSVLIEKKR,63000
6,AAEVKQAKEETGEKAQKKEKKEKEKKAEAAEGGKKKEKAAGGGKPAAEEAAGE,24500
7,KTIWRDVKEGGECSVEEMCLSYYRSEGWKGYHSEGGILKTLFAYLFYDIMFLY,65700
8,MTVMTLCFFGSSFGPWAGAWFCCLLLLLLLLVIAVSLFLHVCFAWEFWFCLCY,39500
9,DYSIAQFRFLLKLLLVHGRWNYMRACKYTLGTFWKEMLFYLTQALYQRWNGYT,64700
10,LCVDVWDGFFLSPLNLVAISFLIFLPFHCWVINAPLSILCLTSIMGFPSFLFF,70200
11,KTRGFQEGVSLTVYDELARWEKYAYGCNELIFHPMRYWPTRGPFTKLFIRFIF,41600
12,MASSTSPSPSTTSIKSEVAPGRTVACLRCRGRRQFCSKERPQCKKCRDARAEC,28800
13,MVVIWGLDLKEMQWWKFKGSYMFNQTYHLRRTKMIVYQIAMIFMVCSESVGTA,31600
14,AAINGSANGKRRRTKEDGGEKADGRAGPKSENVVLQKTIEHIHGLLQHKSVLL,45900
15,RHLAEAGLGIAAAGAAKELYDHRRRSRSRSSDSSRSRSRSQSHTGRHVAAAAL,45800
16,ILKRNMYFIIPLLLLLLGTVALAIYDTIWLLMRTYARGHLSHSHRFWSLLFYS,55700
17,ANVSATAAPIVAVKRGRGRPRKDPSETQAAKKAAAAAVAPDGAKRGRGRPRLV,45200
18,MFCLRSWIPILFFLLRTNASPVYLILFLSATYFLNRPCVYCSFLLLILVIALF,59500
19,LFCFLHYNLLPLPLLLYHLLLAHHILLQLNLDPFLPLLPLLPFLPLLFLLCHL,36000
